Experiments:
[1] = biological target: TbMORN1(2–15) (Trypanosoma brucei brucei strain Lister 427); assay: SEC-MALS; Superdex 200 Increase 10/300 GL; 20 mM Tris-HCl pH 8.5, 200 mM NaCl, 2% (w/v) glycerol, 0.5 mM DTT; 100 μl of 2–4 mg/ml protein applied
[2] = biological target: TbMORN1(7–15) (Trypanosoma brucei brucei strain Lister 427); assay: as above
[3] = biological target: TbMORN1(10–15) (Trypanosoma brucei brucei strain Lister 427); assay: as above
[4] = biological target: the molecule itself; assay: crystal structure; sitting-drop vapour diffusion at 22°C; TbMORN1(7–15) in forms P21 and C2 and TgMORN1(7–15) in P43212 as extended dimers; PfMORN1(7–15) in C2221 as a V-shaped dimer with Zn2+

TbMORN1(2–15) (domain or fragment)
stoichiometry N [1]: 2

TbMORN1(7–15) (domain or fragment)
stoichiometry N [2]: 2

TbMORN1(10–15) (domain or fragment)
stoichiometry N [3]: 2

B1: TgMORN1(7–15) (domain or fragment, Toxoplasma gondii)
chain: EKYEGDWVNGKMHGHGKYIYSDGGVYEGDWIDGKMHGKGTYVFPNGNVYEGEWAHDMKDGYGVLTYQNGEKYEGYWKQDKVHGKGTLTYTRGDKYIGDWMDAKKDGEGELIYANGDRFKGQWADDRANGFGVFTYANGNRYEGEWTDDKRHGRGVFYCAEDGSAYEGEFVGGRKEGNGILRLATGHQLEGTWSGGQLVRVTSFVFAQDSPWLNVDL
notes: TgMORN1, Toxoplasma gondii (1092 bp open reading frame), MORN repeats 7–15; also called Toxoplasma gondii MORN1(7–15); source: E. coli Rosetta 2 (DE3)pLysS, purified; not shown: His10, N-terminal, cleaved
binding result [4]: binds

Source: PMC7725318, “Structures of three MORN repeat proteins and a re-evaluation of the proposed lipid-binding properties of MORN repeats” (PLoS ONE, 2020)
